Experimental data published in US20200173986A1 (HUGEL, published 2020).
Numbering of substitutions follows the chain as printed.

B1: D2 IgG (antibody, V domains shown)
VH: DVKLQESGPGLVKPSQSLSLTCSVTGYSITSGYYWNWIRQFPGNKLEWMGYIRYDGSNNYNPSLKNRISITRDTSKNQFFLKLNSVTTEDTASYYCARDRDSSYYFDYWGQGTALTVSS
VL: DIVMTQSSSYLSVSLGGRVTITCKASDHINNWLAWYQQKPGNAPRLLISDTTSLETGVPSRFSGSGSGKDYTLSITSLQTEDVATYYCQQYWSAPPTFGGGTKLEIK
B2: C7 IgG (antibody, V domains shown)
VH: QVQLVETGGGLVQPKGSLKLSCAASGFTFNTNAMNWVRQAPGKGLEWVARIRSKSNNYATYYADSVKDRFTISRDDSQSLLYLQMNNLKTEDTAMYYCVYGRSYGGLSYWGQGTLVTVSA
VL: DIVMTQSPASLAVSLGQRATISCRASKSVSSSGYSYMHWYQQKPGQPPKLLIYLASNLESGVPARFSGSGSGTDFTLNIHPVEEEDAATYYCQHSRELPLTFGAGTKLELK
notes: also called C7 IgG2a
B3: C16 IgG (antibody, V domains shown)
VH: EVQLQQSGAELARPGASVQMSCKAFGYTFTNYTMHWVRQRPGQGLEWIGFINPSSDYTNYNQKFKDKATLSADKSSSTAYMQLSSLTSEDSAVYYCARRIFYNGRTYAAMDYWGQGTSVTVSS
VL: B2 VL
notes: also called C16 IgG1
B4: C24 IgG (antibody, V domains shown)
VH: EVKLVESGGGLVQPKGSLKLSCAASGYTFNTYAMNWVRQAPGKGLEWVARIRSKSNNYTTYYADSVKDRFTISRDDSQSMLYLQINNLKTEDTAMYYCVGQILYYYVGSPAWFAYWGQGTLVTVSA
VL: B2 VL with S31T, Y53F, L100W, A104G, L110I
B5: C4 IgG (antibody, V domains shown)
VH: DVKLQESGPGLVKPSQSLSLTCTVTGYSITSDYAWNWIRQFPGNKLEWMGYISYSVGTRYNPSLKSRISITRDTSKNQFFLLLKSVTNEDTATYFCARKGEYGFAYWGQGTLVTVSA
VL: B2 VL with S31T
B6: C14 IgG (antibody, V domains shown)
VH: B2 VH with Q1E, Q3K, T7S, N56D, Q78P, L80M, S108G
VL: B2 VL with M4L, S31T, M37V
B7: B4 IgG (antibody, V domains shown)
VH: EVKLVESGGGLVKPGGSLKLSCAASGFTFSNYGMSWVRQTPEKRLEWVATISSGGSYTYYPDSVKGRFTISRDNAKNTLYLQMSSLRSEDTAMYYCARHEGGGNPYFDYWGQGTTLTVSS
VL: DVLMTQTPLSLPVSLGDQASISCRSSQSLVHSNGNTYLHWYLQKPGQSPKLLIYKVSNRFSGVPDRFSGSGSGTDFTLKISRVEAEDLGVYFCSQNTLVPWTFGGGTKLEIK
notes: also called B4 IgG1; clone 4
B8: D3 IgG (antibody, V domains shown)
VH: EVQLEESGGGLVQPGGSLKLSCAASGFTFSNYGMSWVRQTPDKRLELVATINSNGGTTYYPDSVKGRFTISRDNAKNTLYLQMSSLKSEDSAMYYCARDRDAMDYWGQGTSVTVSS
VL: B7 VL with L29I, H31N, N33H, H39E, F92Y, S94F, N96G, T97S, L98H
B9: B23 IgG (antibody, V domains shown)
VH: EVQLQQSGAELVRPGASVKLSCTASGINIKDYYMHWMKQRPEQDLEWIGWIDPGNGDAEYAPKFQGKATMTADTSSNTAYLQLSSLTSEDTAVYYCNEIAYWGQGTLVTVSA
VL: not shown
notes: also called B23 IgG1
B10: D6 IgG (antibody, V domains shown)
VH: EVQLQQSGPELVKPGASVKISCKASGYTFTDYNMHWVKQSHGKSLEWIGYIYPYNGDTGYNQKFKSKATLTVDNSSSTAYMELRSLTSEDSAVYYCVRSGDYWGQGTTLTVSS
VL: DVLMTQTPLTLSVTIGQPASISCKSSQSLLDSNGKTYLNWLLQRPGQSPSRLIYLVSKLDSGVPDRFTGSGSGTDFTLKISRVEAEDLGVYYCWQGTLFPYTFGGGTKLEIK

Experiments:
[1] = molecular target: T1, recombinant GST-SNAP25197 (UniProt P60880 1-197); test: direct ELISA; signal on GST-SNAP25197 against GST-SNAP25FL as reference
T1 construct: not shown: glutathione S-transferase (GST) tag

[2] = molecular target: T1, recombinant GST-SNAP25197; test: BLI (Octet Red96); anti-GST biosensor dipped in 250 nM GST-SNAP25197, IgG as analyte
[3] = molecular target: T1, recombinant GST-SNAP25197; test: BLI (Octet Red96); anti-GST biosensor dipped in 125 nM GST-SNAP25197, IgG as analyte
[4] = molecular target: T1, recombinant GST-SNAP25197; test: BLI (Octet Red96); IgG on AMC biosensor, GST-SNAP25197 as analyte; koff is the instrument's lowest limit, tentatively given
recombinant GST-SNAP25FL = molecular target: T2, recombinant GST-SNAP25FL (UniProt P60880 1-206); test: BLI (Octet Red96); IgG on AMC biosensor, GST-SNAP25FL as analyte; KD from a tentative koff limit
T2 construct: also called GST-SANP25FL; not shown: glutathione S-transferase (GST) tag
T2 sequence (P60880 whole entry): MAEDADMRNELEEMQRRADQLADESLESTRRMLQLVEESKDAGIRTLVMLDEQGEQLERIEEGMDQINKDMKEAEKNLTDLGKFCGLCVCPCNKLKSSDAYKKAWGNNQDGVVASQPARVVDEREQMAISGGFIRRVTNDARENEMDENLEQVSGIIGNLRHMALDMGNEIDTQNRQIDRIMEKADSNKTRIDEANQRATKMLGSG

T1 sequence (P60880 1-197): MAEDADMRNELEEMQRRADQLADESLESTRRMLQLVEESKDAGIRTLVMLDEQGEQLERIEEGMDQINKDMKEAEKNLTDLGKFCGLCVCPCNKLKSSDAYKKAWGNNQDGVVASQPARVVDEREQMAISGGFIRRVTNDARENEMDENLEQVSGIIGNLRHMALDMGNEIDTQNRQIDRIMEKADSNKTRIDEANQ

Row | Binder | Ratio197/206 (A450 with SNAP25197 to A450 with SNAP25FL) [1] | koff [4] | further results
1 | B1 | 0.03 ratio |  | 
2 | B2 | 1040 ratio | ≤ 1e-07 s⁻¹ | Kd [2]: 4.41 nM; koff [2]: 0.00122 s⁻¹; Kd [3]: 19.3 nM; koff [3]: 0.00494 s⁻¹
3 | B3 | 996 ratio |  | 
4 | B4 | 973 ratio | ≤ 1e-07 s⁻¹ | 
5 | B5 | 919 ratio | ≤ 1e-07 s⁻¹ | 
6 | B6 | 953 ratio |  | 
7 | B7 | 0.83 ratio |  | Kd (recombinant GST-SNAP25FL): ≤ 0.00105 nM
8 | B8 | 12.9 ratio |  | 
9 | B9 | 0.92 ratio |  | Kd (recombinant GST-SNAP25FL): ≤ 0.00104 nM
10 | B10 | 0.02 ratio |  | 
